The supplement of paper PMC9170038

Legend:
MS2 coat protein = assay: apparent KD of MS2 coat protein; higher = weaker reporter binding; conditions: Eterna round: R107
Procedure: (§1)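 RNA-MaP round R107: designed RNA switches with theophylline, tryptophan, arginine or FMN aptamers are transcribed on-chip within common flanks. They are titrated with SNAP-549-labelled MS2 coat protein in RNA-MaP buffer (100 mM Tris pH 7.5, 80 mM KCl, 4 mM MgCl2), without ligand or with the indicated ligand. Median apparent KD per design.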

[1] = system: K4 kissing-loop RNA reporter; assay: apparent KD of K4 kissing-loop reporter; higher = weaker reporter binding; conditions: Eterna round: R107;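 further: bound reporter read as fluorescence of individual clusters on recovered sequencing chips by microscopy, with normalized cluster intensities fitted with a binding model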
Procedure: as §1, with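 “a labelled K4 kissing-loop RNA reporter” for “SNAP-549-labelled MS2 coat protein”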

[2] = input ligand: theophylline 20 uM
[3] = input ligand: theophylline 2 mM
[4] = input ligand: tryptophan 2.4 mM

Row | Sequence | apparent KD of MS2 coat protein (MS2 coat protein; input ligand: arginine 13.2 mM) | apparent KD of MS2 coat protein (MS2 coat protein; input ligand: none) | apparent KD of MS2 coat protein (MS2 coat protein; [2]) | apparent KD of MS2 coat protein (MS2 coat protein; [3]) | apparent KD of MS2 coat protein (MS2 coat protein; [4]) | apparent KD of K4 kissing-loop reporter ([1]; input ligand: FMN 200 uM) | apparent KD of K4 kissing-loop reporter ([1]; input ligand: arginine 13.2 mM) | apparent KD of K4 kissing-loop reporter ([1]; input ligand: none) | apparent KD of K4 kissing-loop reporter [1, 2] | apparent KD of K4 kissing-loop reporter [1, 4]
1 | ACAUGAGGAUCACCCAUGUUAAACACAGAAGGAGCGUGAAGGAACACAGGUAGGUCGCUGUACUUAUUGAGUAUUCACUCGAUAC [JR_Nu_SSArginiA_Sub028] | 14.9 nM | 12.5 nM | 16.5 nM | 12.8 nM | 13.3 nM |  |  |  |  | 
2 | CAAUAAGUACCGGUCCUCAGAUCCUCAUGACGAGGACCGGUACGGCCGCCACUCGAAACAUGAGGAUCACCCAUGUAAUAAUAAC [Brourdmod02] | 20.6 nM |  | 68.4 nM | 51.9 nM |  |  |  |  |  | 
3 | CUGCCAUGCAGAGAUACCAGUGAGCUCAGAACAUGAGGAUCACCCAUGUACGCCGCCGAUCACCCUUGGCAGCUCUGCAUGGCAG [%*#)(] | 12.2 nM | 12.4 nM | 14.1 nM | 11.4 nM | 11.6 nM |  |  |  |  | 
4 | CCAUGGUUGACGGCCGCCACUCAUUAGUCUUUGAGGUUGGCACAUGAGGAUCACCCAUGUCUGCAGAGGACCGGGUCUCGCCACA [theeternabot_sameState_MS2_Trp_B_15] | 39.8 nM |  | 67.3 nM | 54.4 nM |  |  |  |  |  | 
5 | AAACGUUGCUGCGAUACCAGACAUGAGGAUCACCCAUGUACCAAGGUAAAGAAAUAACGUGUCCCUUGGCAGCGCAGCAACGAAA [MAT - Exclusion Theophlline B - Mod of Eli - D12] | 8.7 nM | 10.2 nM | 16.1 nM | 143 nM | 10.6 nM |  |  |  |  | 
6 | CUGUUUACAUGAGCCCGUCAUAUAUACGAUACCAGUUAAAGAUGAAACCCUUGGCAGCGUAGGACAUGAGGAUCACCCAUGUGCC [theeternabot_exclusion_MS2_Theo_A_17] | 15.6 nM |  | 21.1 nM |  | 18.6 nM |  |  |  |  | 
7 | GUAUUUCCCUCGGAUACCAGUCAUCAUGAGUAUAGUGAUGUUGUACGUCCGGAUGAUUUUGACCCUUGGCAGCCGUCUCCUUGAA [theeternabot_sameState_KL_Theo_B_49] |  |  |  |  |  | 515 nM | 371 nM | 593 nM | 497 nM | 540 nM
8 | UGACAUUGCUCAGAUACCAGACUUGAGGAUCACCCAAGUGCCAAACGUACAAUAAUAAAAGUCCCUUGGCAGCUGAGCAAUGUCU [TheoBX 14] |  |  |  |  |  | 201 nM | 13.4 nM | 97.2 nM | 112 nM | 62.1 nM
9 | CCAUUCAUUUACGAUACCAGUCUAAUAUAUUUAAUCAAAACCCUCGCCGAGUGAUGUUCGGACCCUUGGCAGCGUCUGCGACAGG [cyycmullin] |  |  |  |  |  | 354 nM | 333 nM | 334 nM | 399 nM | 227 nM
10 | GAUGUAGAGGCGGCCGCCACUAGUGAUGUUAGUGAUGUUUGAUACUGUAUAUAUCGGCGUGUAGAUAGGACCGGGCCUGAUGGAG [dbbdmullin] |  |  |  |  |  | 276 nM | 165 nM | 214 nM | 225 nM | 201 nM
11 | GGGUUUGCCGGAAGGAGCGCACUAUGGAGUGAUGUUCCAUGACCGCACAGCUUGCGGUCAGUGCAGGUAGGUCGCCGGUAGCGUU [Maedzaus] |  |  |  |  |  | 205 nM | 203 nM | 239 nM | 271 nM | 179 nM
12 | UGACUGGACUGAAGGAGCGGGCGAGACAAAGUCUCGAACUGCUAGUGAUGUUAGCAAAUAACCCAGGUAGGUCGCAGUCUAGUCU |  |  |  |  |  | 122 nM | 100 nM | 120 nM | 109 nM | 110 nM
13 | GAAUUAAUGUCUUUAAUAUAAUAAUCAGAUACCAGUGAUUUGUGACACCCUUGGCAGCUGUAUAGAGUGAUGUUCUUAUACAUAA [#12 K4 Theophylline A Exclusion] |  |  |  |  |  | 352 nM | 460 nM | 409 nM | 509 nM | 279 nM
14 | GGAGAGGUCUUGUUUGGAUGUGAUUAAUGGCGAGGACCGGUACGGCCGCCACUCGGGUGAUGUUAGUGAUGUUGAUGUAGUGAUG [uyumullin] |  |  |  |  |  | 150 nM | 103 nM | 114 nM | 206 nM | 109 nM
15 | CACCAUGAAUUCUCUAGGAGUGAUGUUUUUCGAGGACCGGUACGGCCGCCACUCGGACGAGGACCGUGGGAGCGGCGAACCGACU [ddfgmullin] |  |  |  |  |  | 172 nM | 74.7 nM | 208 nM | 334 nM | 150 nM
16 | AGGCACGAGCAAGGAUAUCGAGUGGAGUGAUGUUCUGCCGACCCAGGACCGCAAGGUCCUGGGUCGCGAGAAGGUGCUCGUGCCU [#2 Same State - FMN A Attempt #5 (HarryS)] |  |  |  |  |  | 254 nM | 642 nM | 730 nM | 676 nM | 685 nM

Row | Sequence | apparent KD of MS2 coat protein (MS2 coat protein; input ligand: arginine 13.2 mM) | apparent KD of MS2 coat protein (MS2 coat protein; input ligand: none) | apparent KD of MS2 coat protein (MS2 coat protein; [2]) | apparent KD of MS2 coat protein (MS2 coat protein; [3]) | apparent KD of MS2 coat protein (MS2 coat protein; [4]) | apparent KD of K4 kissing-loop reporter ([1]; input ligand: FMN 200 uM) | apparent KD of K4 kissing-loop reporter ([1]; input ligand: arginine 13.2 mM) | apparent KD of K4 kissing-loop reporter ([1]; input ligand: none) | apparent KD of K4 kissing-loop reporter [1, 2] | apparent KD of K4 kissing-loop reporter [1, 4]
17 | AUGAGGAGCAGUGAUCCUAUUCCAUGGGAAGGAGCGUAGGAUACUACAGGUAGGUCGCCCAGUGAUGUUGGGCGCGUGCUCUUGG [Zaqua] |  |  |  |  |  | 159 nM | 133 nM | 133 nM | 178 nM | 146 nM
18 | UGGAUAUAGUGAUGUUAUAUAGAGAUGGAUACCAGCUAAGAGAAUGGCCCUUGGCAGCCGAAAGAAGUAUCAUUAGAGAAGAAUG [ExTheophyl.Ag] |  |  |  |  |  | 261 nM | 249 nM | 259 nM | 276 nM | 214 nM
19 | AAUAUCUAGUAUAUAUUUAAUAAAACAGAUACCAGUGAUAAUAGACACCCUUGGCAGCUGGACGAGUGAUGUUCGUAUAUAUUAA [JR_SSTheophyA_Sub007] |  |  |  |  |  | 90.7 nM | 153 nM | 108 nM | 184 nM | 66.8 nM
20 | GUACGCUCUCGAGUGAUGUUCGGUAAUAGAGAGGAUAUCGCUUUUGCGAGAAGGCUCUGAAUGAGGAAACUCGUUCUGAGUGUAC [FMN A 19] |  |  |  |  |  | 436 nM | 362 nM | 389 nM | 358 nM | 419 nM
21 | UGGAUAUAGUUUAGUCUGGUGAGGUCAGAUACCAGACUAGCGAUAGUCCCUUGGCAGCUGAUUAUGAUUGAGUGAUGUUCAAUCG [Theo A Ex t9] |  |  |  |  |  | 187 nM | 151 nM | 170 nM | 157 nM | 157 nM
22 | CAGGUGCUGAUGCGGUGGCCGGUGGUCGUGCGAGGACCGGUACGGCCGCCACUCGCAUGAGUGAUGUUCAUGUGUCGUCGUCGUC [whbob_EX_Tryp_A_t2] |  |  |  |  |  | 229 nM | 136 nM | 188 nM | 192 nM | 223 nM
23 | GCAACAUUGGCAGGAUAUCAUUCUGAGUGAUGUUCAGGGUUCAGCUAACGAAAGUUAGUUGUACCAUGAGAAGGGCUAAUGUUGC [Omei KL FMN B SS A v1] |  |  |  |  |  | 332 nM | 886 nM | 1120 nM | 1020 nM | 1080 nM
24 | CCAUCGCUAUUCGAUACCAGUCAUUUUUUAUUUUAUUUUUUUUUUGGAGUGAUGUUCCAAGACCCUUGGCAGCGAAUAGUGAUGG [whbob_SS_Theo_B_th78] |  |  |  |  |  | 119 nM | 130 nM | 113 nM | 139 nM | 106 nM
25 | GAUUAAUAAGAGGAUACCAGUACUAAUAAAGUACAUUAAUAGUAGAGUGAUGUUCUAUAGUACCCUUGGCAGCUUAGAGUAAGUU [#09 K4 Theophylline B Exclusion] |  |  |  |  |  | 131 nM | 200 nM | 167 nM | 210 nM | 103 nM
26 | AAGUGUUCUAGUGAUACCAGACAUUUCUAUUACAUUAAUAUAGCUAAGUGAUGUUUAGCAGUCCCUUGGCAGCACUAUUUCACUA [JR_SSTheophyB_Sub015] |  |  |  |  |  | 167 nM | 193 nM | 174 nM | 238 nM | 191 nM
27 | AUCGUUGUCUGAGGAUAUCGGUUAUCUGUAGUGAUGUUACAGUAUAUUGAUAUUAUAGUUUCUUUUCGAGAAGGCAGACUACGUA [JR_Nu_ExcFMNB_Sub021] |  |  |  |  |  | 74.1 nM | 61.3 nM | 68.9 nM | 65.4 nM | 66.4 nM
28 | AAUAAAAUCACGGCCGCCACUGAUUAUUUUAUUAGGAGUGAUGUUCCUAUGACAAUAUACCUUAACAGGACCGGGUGAAUAUUUA [JR_ExcTryptoB_Sub010] |  |  |  |  |  | 87.8 nM | 89.6 nM | 86.1 nM | 94.4 nM | 80.8 nM
29 | AGACUACUGAUAGGAUAUAACAUACUAGCUCGUAUACCAAAGGUAUACGAGCUCCUUCUAGUGAUGUUAGAAGGGUCGGUAGUCA [Omei KL FMN B Exc B v4] |  |  |  |  |  | 107 nM | 101 nM | 106 nM | 99.6 nM | 102 nM
30 | UUGGCAGUGAUGUUGCCAGACAUCACCGAAGGAGCGGGCGAAAGCCCAGGUAGGUCGCGGUAGCGGAGUGAUUCUCCGCGAGGGC [Same State Arginine A GF 23] |  |  |  |  |  | 957 nM | 621 nM | 937 nM | 759 nM | 829 nM
31 | CAAACGUGCGGUAGGUUCAAGCGCUGGGAAGGAGCGCAGAUGACUGCAGGUAGGUCGCCCAGUGAUGUUGGGCUUUCCACCUACG [Dilausma] |  |  |  |  |  | 138 nM | 123 nM | 119 nM | 138 nM | 99.9 nM
